Reference: article doi:10.1101/2021.05.24.445519 (bioRxiv, 2021)

Target: the molecule itself
Assay: crystal structure

B1: alanine:glyoxylate aminotransferase 1, minor allele (AGT-Mi), purified recombinant (enzyme, human)
chain: MASHKLLVTPLKALLKPLSIPNQLLLGPGPSNLPPRIMAAGGLQMIGSMSKDMYQIMDEIKEGIQYVFQTRNPLTLVISGSGHCALEAALVNVLEPGDSFLVGANGIWGQRAVDIGERIGARVHPMTKDPGGHYTLQEVEEGLAQHKPVLLFLTHGESSTGVLQPLDGFGELCHRYKCLLLVDSVASLGGTPLYMDRQGIDILYSGSQKALNAPPGTSLISFSDKAKKKMYSRKTKPFSFYLDIKWLANFWGCDDQPRMYHHTIPVISLYSLRESLALIAEQGLENSWRQHREAAAYLHGRLQALGLQLFVKDPALRLPTVTTVAVPAGYDWRDIVSYVMDHFDIEIMGGLGPSTGKVLRIGLLGCNATRENVDRVTEALRAALQHCPKKKL
  binding result: binds
